What was measured:
nuclear beta-catenin = experiment: Wnt-induced nuclear beta-catenin accumulation in Xwnt8-responding animal cap cells; assay type: in vivo, Xenopus; conditions: stage 9 animal cap cells neighbouring Xwnt8-expressing cells; 200 pg mRNA
Method: FIGS. 7A-C are each schematics with accompanying bar graphs showing that Tiki1 inhibits Wnt/β-catenin signaling in both Wnt-producing and Wnt-responding cells. 7A, Tiki1 acts in Xwnt8-producing cells. Xwnt8 mRNA (20 pg) was co-injected with Tiki1 or LDLR mRNA (100 pg) into a single blastomere at the 8-cell stage, while S01234-Luciferase (140 pg) plus TK-Renilla (1.25 pg) reporter DNAs were injected into a neighboring blastomere. 7B, Tiki1 acts in Xwnt8-responding cells. S01234-Luciferase and TK-Renilla reporter DNAs were co-injected with Tiki1 or LDLR mRNA in a single blastomere, while Xwnt8 mRNA was injected into a neighboring blastomere. Luciferase readings were normalized to Renilla. 7C, Tiki1 reduces nuclear beta-catenin levels in Xwnt8-responding cells. […] Only cells within the distance of five cell bodies from Xwnt8-expressing cells were counted in any given field. […]
Secondly Wnt-induced nuclear beta-catenin accumulation was monitored. […] In confocal microscopy Xwnt8-expressing cells were traced by RFP (red), whereas Wnt-responding cells that expressed Tiki1 or LDLR were traced by FLD (green), and naive cells descended from uninjected blastomeres lacked green or red fluorescence. […]

Wnt3a = Wnt3a (Mus musculus, UniProt P27467); experiment: Triton X-114 phase separation of Wnt3a secreted from Tiki-expressing cells; assay type: cell-based; parameters: expressed in transfected cells; host or cells: mouse L cells (Wnt3a-expressing); HEK293T; conditions: HEK293T cells
Wnt3a, sequence (P27467 19-352): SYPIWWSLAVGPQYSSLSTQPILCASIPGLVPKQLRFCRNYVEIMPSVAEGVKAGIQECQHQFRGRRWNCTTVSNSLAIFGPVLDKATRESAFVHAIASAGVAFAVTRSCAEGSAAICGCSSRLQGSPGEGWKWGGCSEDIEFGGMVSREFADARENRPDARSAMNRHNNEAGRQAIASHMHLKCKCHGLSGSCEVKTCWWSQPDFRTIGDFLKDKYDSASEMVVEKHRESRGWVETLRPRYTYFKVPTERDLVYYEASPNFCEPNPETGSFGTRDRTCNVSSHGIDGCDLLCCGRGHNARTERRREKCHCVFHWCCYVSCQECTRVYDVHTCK
Source text: FIG. 6A is a gel showing that Tiki inactivates Wnt3a by regulating Wnt3a acylation/palmitoylation. A Triton X-114 phase separation experiment is shown in 6A. […] T, total; Aq, aqueous; De, detergent.
FIG. 6B is a gel showing that Wnt3a secreted from Tiki1 or Tiki2 but not GFP-expressing HEK293T cells partitioned in the aqueous phase.
C77 palmitoylation is required for Wnt3a activity (Willert, K. et al., Nature 423, 448-452 (2003)) and binding to both Fz and LRP6 (Komekado, H. et al., Genes Cells 12, 521-534 (2007); Cong, F. et al., Development 131, 5103-5115 (2004)), while S209 acylation is critical for Wnt3a secretion (Takada, R. et al., Dev Cell 11, 791-801 (2006)). Thus Tiki proteins may affect C77 palmitoylation but not S209 acylation. The palmitate adduct at C77 is the primary contributor to Wnt3a hydrophobicity because palmitoylated Wnt3a is partitioned in the Triton X-114 detergent phase whereas Wnt3a lacking the palmitate is soluble in the aqueous phase (Willert, K. et al., Nature 423, 448-452 (2003); Komekado, H. et al., Genes Cells 12, 521-534 (2007)).

[1] = molecular target: T1, Recombinant human WNT3A protein (Homo sapiens, UniProt P56704); experiment: In vitro incubation of recombinant WNT3A with purified protein, Triton X-114 phase separation; assay type: biochemical; conditions: purified protein incubated with recombinant human WNT3A
Method: FIG. 6G is a gel showing that recombinant WNT3A was incubated with Krm2N or Tiki2N purified from WCL (top) or from CM (bottom) and was subjected to Triton X-114 phase separation.
FIG. 6H is a gel showing that Recombinant WNT3A was incubated with Krm2N or Tiki2N or Tiki2NΔ. purified from WCL and was subjected to Triton X-114 phase separation.
(§1) Recombinant human Tiki2N, which is the ectodomain harboring the conserved Tiki domain (FIG. 6J), was purified, via tandem affinity procedures from HEK293T cell extracts or CM.

[2] = molecular target: T1, Recombinant human WNT3A protein; experiment: Acyl-biotinyl exchange (ABE) analysis of WNT3A after in vitro incubation; assay type: biochemical; conditions: compared with WNT3A incubated with Krm2N
Method: FIG. 6I is a gel showing the results of ABE analysis of WNT3A after in vitro incubation with Krm2N or Tiki2N Biotinylation of WNT3A was much reduced after incubation with Tiki2N compared to that of WNT3A incubated with Krm2N.
Biotinylation of Wnt3a secreted in the presence of Tiki2 was much reduced compared to that of Wnt3a from control cells (FIG. 6C). This reduction of available thioester linkage indicates depalmitoylation of Wnt3a at a cysteine residue, e.g., C77, in the presence of Tiki2
as §1

[3] = test system: Super-TOPFLASH (STF) luciferase reporter; experiment: Super-TOPFLASH (STF) luciferase reporter induction in STF cells; assay type: cell-based; conditions: 6-hour treatment; not shown
Method: A high throughput screen (HTS) is used to identify compounds that enhance LRP5/6 signaling as potential therapeutics for osteoporosis or cellular proliferative disorders. We employ a Wnt responsive cell line carrying a Super-TOPFLASH (STF) luciferase reporter (Wnt-responsive) (Major et al. Science. 2007. 316:1043-6). These STF cells grow as an adherent monolayer making them ideally suited for 384-well-plate screening format. […] Different conditions are tested and an acceptable z′ score of 0.5 or above (z′ measures HTS quality and reproducibility (Zhang et al. J Biomol Screen. 1999. 4:67-73)) is achieved.

## LDLR: negative control, expressed from injected LDLR mRNA
Nuclear beta-catenin
  Cells displaying nuclear beta-catenin: 80%

B1: Tiki2N: Recombinant human Tiki2N, the ectodomain harboring the conserved Tiki domain (protein)
chain: RPQPPDGGQCRPPGSQRDLNSFLWTIRRDPPAYLFGTIHVPYTRVWDFIPDNSKAAFQASTRVYFELDLTDPYTISALASCQLLPHGENLQDVLPHELYWRLKRHLDYVKLMMPSWMTPAQRGKGLYADYLFNAIAGNWERKRPVWVMLMVNSLTERDVRFRGVPVLDLYLAQQAEKMKKTTGAVEQVEEQCHPLNNGLNFSQVLFALNQTLLQQESVRAGSLQASYTTEDLIKHYNCGDLSAVIFNHDTSQLPNFINTTLPPHEQVTAQEIDSYFRQELIYKRNERMGKRVMALLRENEDKICFFAFGAGHFLGNNTVIDILRQAGLEVDHTPAGQAIHSPAPQSPAPSPEGTSTSPAPVTPAAAVPEAPSVTPTAPPEDEDPALSPHLLLPDSLSQLEEFGRQRKWHKRQSTHQRPRQFNDLWVRIEDSTTASPPPLPLQPTHSSGTAKPPFQLSDQLQQQDPPG
modifications: left off: small tags and cut ends
notes: Recombinant human Tiki2N, the ectodomain harboring the conserved Tiki domain
Wnt3a
  Partitioning of secreted Wnt3a in Triton X-114 phase separation: partitioned exclusively in the aqueous phase
[1]
  Partitioning of WNT3A in Triton X-114 phase separation after in vitro incubation: became segregated in the aqueous phase
[2]
  Biotinylation of WNT3A in ABE assay after in vitro incubation: biotinylated to a much less extent

B2: Wnt3a: Wnt ligand added to STF reporter cells (protein)
chain: SYPIWWSLAVGPQYSSLGSQPILCASIPGLVPKQLRFCRNYVEIMPSVAEGIKIGIQECQHQFRGRRWNCTTVHDSLAIFGPVLDKATRESAFVHAIASAGVAFAVTRSCAEGTAAICGCSSRHQGSPGKGWKWGGCSEDIEFGGMVSREFADARENRPDARSAMNRHNNEAGRQAIASHMHLKCKCHGLSGSCEVKTCWWSQPDFRAIGDFLKDKYDSASEMVVEKHRESRGWVETLRPRYTYFKVPTERDLVYYEASPNFCEPNPETGSFGTRDRTCNVSSHGIDGCDLLCCGRGHNARAERRREKCRCVFHWCCYVSCQECTRVYDVHTCK
[3]
  Induction of the STF reporter: 30-40 folds

— patent US20130101582A1, “Tiki1 and Tiki2, Wnt Inhibitors” (CHILDREN'S MEDICAL CENTER CORPORATION, priority 2010, published 2013)
